The values that follow are results of earlier work, collected in publication PMC8266389.

As usually defined, the Kd is the concentration at which binding is half-saturated.

Among the targets are ACTRIIB (Homo sapiens) (UniProt Q13705); ACTRIIA (Homo sapiens) (UniProt P27037); Cryptic (Homo sapiens) (UniProt P0CG37); BMPRII (Homo sapiens) (UniProt Q13873); ALK4 (Homo sapiens) (UniProt P36896); Cripto-1 (Homo sapiens) (UniProt P13385).
UniProt P13385, sequence (P13385 31-150): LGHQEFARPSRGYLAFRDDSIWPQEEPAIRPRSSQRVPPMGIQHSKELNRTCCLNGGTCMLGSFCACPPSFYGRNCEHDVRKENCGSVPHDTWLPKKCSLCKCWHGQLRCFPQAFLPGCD
UniProt P36896, sequence (P36896 24-126): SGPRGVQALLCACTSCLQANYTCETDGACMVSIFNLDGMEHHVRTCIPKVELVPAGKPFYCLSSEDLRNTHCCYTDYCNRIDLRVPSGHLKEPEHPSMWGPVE
UniProt Q13705, sequence (Q13705 19-137): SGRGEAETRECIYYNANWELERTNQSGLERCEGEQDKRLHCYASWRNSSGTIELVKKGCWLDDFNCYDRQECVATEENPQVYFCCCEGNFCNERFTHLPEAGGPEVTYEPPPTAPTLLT
UniProt Q13873, sequence (Q13873 27-150): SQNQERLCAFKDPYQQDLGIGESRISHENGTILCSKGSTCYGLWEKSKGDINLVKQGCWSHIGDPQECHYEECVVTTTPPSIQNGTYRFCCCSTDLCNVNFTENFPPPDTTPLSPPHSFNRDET
UniProt P0CG37, sequence (P0CG37 26-158): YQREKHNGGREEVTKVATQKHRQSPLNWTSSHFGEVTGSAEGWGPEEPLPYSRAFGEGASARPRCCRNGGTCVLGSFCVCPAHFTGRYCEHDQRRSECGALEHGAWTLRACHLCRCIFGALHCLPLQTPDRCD
UniProt P27037, sequence (P27037 20-135): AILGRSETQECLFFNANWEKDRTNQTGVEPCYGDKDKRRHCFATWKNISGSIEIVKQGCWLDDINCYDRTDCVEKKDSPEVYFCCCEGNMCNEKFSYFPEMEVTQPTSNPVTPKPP

As to Nodal (from UniProt Q96S42), the Kd was 10 nM with ACTRIIB (Homo sapiens); 100 nM with ACTRIIA (Homo sapiens); 2000 nM with Cryptic (Homo sapiens); 0.149 nM with BMPRII (Homo sapiens); 15 nM with ALK4 (Homo sapiens); 16 nM with Cripto-1 (Homo sapiens).
